Data on 1 molecule can be found in US20180355050A1 (Ablynx, published 2018).

The target in experiment [1] is T1, human CD40L expressed on CHO cells (human, UniProt P29965 1-261).
T1 sequence: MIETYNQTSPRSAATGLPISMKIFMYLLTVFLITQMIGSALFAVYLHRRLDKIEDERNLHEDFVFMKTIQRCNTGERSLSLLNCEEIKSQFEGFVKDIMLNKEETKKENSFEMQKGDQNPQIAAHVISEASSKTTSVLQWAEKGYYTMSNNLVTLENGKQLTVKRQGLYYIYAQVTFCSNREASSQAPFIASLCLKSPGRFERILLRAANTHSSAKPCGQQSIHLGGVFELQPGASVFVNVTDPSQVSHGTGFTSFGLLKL
Nature of the experiment: cell-based or functional assay.

The target of experiment [2] is T1, human CD40L expressed on CHO cells. The experiment in a line: cell-based or functional assay. The source holds these as a separate data set.
In experiment [3] the target is T2, rat CD40L on transiently transfected HEK cells (rat, UniProt Q9Z2V2 1-260).
T2 construct: whole, on cells
T2 sequence (looked up): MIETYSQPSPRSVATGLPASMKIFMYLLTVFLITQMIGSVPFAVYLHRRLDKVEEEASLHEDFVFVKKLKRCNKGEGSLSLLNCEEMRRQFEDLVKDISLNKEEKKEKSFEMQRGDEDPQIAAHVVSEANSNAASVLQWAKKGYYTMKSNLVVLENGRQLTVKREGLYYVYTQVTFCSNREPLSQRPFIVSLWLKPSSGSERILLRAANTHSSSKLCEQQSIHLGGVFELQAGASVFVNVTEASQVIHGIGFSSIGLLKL
The experiment in a line: FACS on HEK cells transiently transfected with rat CD40L. The method, then: Cross-reactivity to rat CD40L (UniProt accession numbers: Q9Z2V2 and Q9R254 (secondary)) was tested in FACS. Purified Nanobodies were analyzed on FACS for binding to rat CD40L. 2×10⁵ cells (transiently transfected rat CD40L HEK cells) were incubated with the purified Nanobodies in FACS buffer for 30 minutes at 4° C. Cells were washed 3×, re-suspended and incubated for 30 minutes at 4° C. Cells were washed again 3× and dead cells were stained with TOPRO3 (Molecular probes, T3605). Samples were analyzed on a FACSarray™ (BD Biosciences).

Experiment [4] deals with T3, recombinant human CD40L (human, UniProt P29965 108-261, limits assumed).
T3 construct: Bought soluble recombinant protein (R&D, HEK, 6420-CL/CF); also called hCD40L; human CD40L (HEK, R&D)
T3 sequence: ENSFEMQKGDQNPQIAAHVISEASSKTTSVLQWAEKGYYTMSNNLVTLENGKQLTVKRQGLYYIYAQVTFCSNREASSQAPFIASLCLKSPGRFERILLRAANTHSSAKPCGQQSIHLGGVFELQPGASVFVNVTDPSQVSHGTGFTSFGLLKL
The experiment in a line: FACS ligand competition, biotinylated human CD40L on cyno CD40 HEK cells. How it is done:
Cross-reactivity to cynomolgus CD40L (UniProt accession number: G7PG38) and rhesus CD40L (UniProt accession number: G7N4M5) was tested in a ligand competition assay. […] 2×10⁵ cells (transiently transfected HEK cells) were incubated with dilution series of the purified Nanobodies in FACS buffer for 30 minutes at 4° C. Cells were then washed 3× and finally resuspended in FACS buffer containing Streptavidin-PE (BD Pharmingen, #554061). This mixture was incubated for 30 minutes at 4° C. Cells were further handled as set out above.

The target of experiment [5] is T3, recombinant human CD40L. The experiment in a line: FACS ligand competition, biotinylated human CD40L on human CD40 HEK cells.
The target in experiment [6] is T3, recombinant human CD40L. Nature of the experiment: FACS ligand competition, biotinylated human CD40L on rhesus CD40 HEK cells.
The next experiment concerns the target human TNFα (human, UniProt P01375 77-233). The experiment in a line: competition ELISA on coated human CD40L, fixed Nanobody, dilution series of competitor. An excerpt:
(§1) The Basic Local Alignment Search Tool (BLAST) was used to identify the closest related protein in the human protein database. […] A fixed concentration of Nanobody was used together with a dilution series of competitor (TNFα, HVEM-L (TNF14) and hRANKL (TN F11); CD40L was used as positive control), starting at a 100-fold excess. The Nano bodies were detected with anti-FLAG-HRP (Sigma (A8592)).
(In general: An ELISA detects its analyte on a solid surface through an enzyme-linked reagent.)

The target in the next experiment is HVEM-L (TNF14) (human, UniProt O43557 74-240, limits assumed). The description is as above.
HVEM-L (TNF14), sequence (O43557 74-240 limits assumed): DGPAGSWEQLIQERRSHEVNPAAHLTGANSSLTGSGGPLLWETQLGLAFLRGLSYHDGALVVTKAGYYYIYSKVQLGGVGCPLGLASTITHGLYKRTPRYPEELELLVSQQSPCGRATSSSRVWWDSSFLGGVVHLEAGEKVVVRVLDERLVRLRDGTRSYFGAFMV
Text: as §1

In a further experiment the target is T4, hRANKL (TNF11) (human, UniProt O14788 140-317, limits assumed).
T4 sequence (looked up): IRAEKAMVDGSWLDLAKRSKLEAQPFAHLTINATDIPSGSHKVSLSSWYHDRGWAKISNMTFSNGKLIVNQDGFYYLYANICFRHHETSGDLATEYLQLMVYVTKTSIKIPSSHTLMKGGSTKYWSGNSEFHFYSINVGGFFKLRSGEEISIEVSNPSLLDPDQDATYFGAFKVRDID
The description is as above.
Text: as §1

Another experiment concerns the target T5, recombinant mouse CD40L (mouse, UniProt P27548 112-260, limits assumed).
T5 construct: also called mouse CD40L (R&D NSO)
T5 sequence (looked up): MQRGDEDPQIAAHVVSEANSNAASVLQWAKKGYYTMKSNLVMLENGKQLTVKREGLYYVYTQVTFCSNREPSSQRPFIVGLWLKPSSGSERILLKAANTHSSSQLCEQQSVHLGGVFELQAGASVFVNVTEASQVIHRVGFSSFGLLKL
Nature of the experiment: SPR (ProteOn), immobilised recombinant mouse CD40L 3000-4000 RU; member of the lead panel. The method, then: To assess binding to mouse CD40L (UniProt accession number: P27548), ProteOn GLC Sensor Chips were coated with 3000-4000 RU of recombinant mouse CD40L (R&D NSO) in 10 mM acetate buffer pH5.5. Purified monovalent anti-CD40L Nanobodies in ProteOn running buffer: PBS/Tween (phosphate buffered saline, pH 7.4 with 0.005% Tween 20) were flown over the sensor chips at 100 nM. Processed curves were used for off-rate analysis based on the Langmuir dissociation model.

For experiment [7], the target named is T3, recombinant human CD40L. Nature of the experiment: FACS ligand competition, biotinylated human CD40L on human CD40 HEK cells; * suboptimal curve fit.

human TNFα, sequence (P01375 77-233 limits assumed): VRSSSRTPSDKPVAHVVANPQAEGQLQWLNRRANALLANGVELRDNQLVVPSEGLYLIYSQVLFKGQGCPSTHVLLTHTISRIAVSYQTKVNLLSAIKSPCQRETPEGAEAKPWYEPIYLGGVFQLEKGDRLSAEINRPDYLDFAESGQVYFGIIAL

B1: C0100029C10 (VHH)
VHH: EVQLVESGGGLVQPGGSLRLSCAASGFTLDYYALGWFRQAPGKEREGVSCISSTESSDGSTYYADSVKGRFTISRDSAKNTVYLQMNSLKPEDTAVYYCATDQTLFGVCRGIATPDPGFWGQGTLVTVSS
notes: Monovalent Nanobody; tag of the monovalent form not spelled out; also called C01000029C10
In the case of B1, the “IC50 (M), B-cell proliferation assay, +HSA” value in experiment [1] is 1.06e-09 M. In addition, in experiment [2], the “Average IC50 (M), B-cell proliferation assay” value is 1.26e-09 M. Also, the binding result is listed as “no binding” in [3]; “no binding (tested: competitor from a 100-fold excess)” with human TNFα; “no binding (tested: competitor from a 100-fold excess)” in the experiment with HVEM-L (TNF14); “no binding (tested: competitor from a 100-fold excess)” with hRANKL (TNF11); “no binding (tested: 100 nM)” with recombinant mouse CD40L. In addition, the figures for the “% block (maximum observed effect)” value in the experiment with recombinant human CD40L [4], with recombinant human CD40L [5] and with recombinant human CD40L [6] were 81%, 98% and 87%, respectively. Besides, the values for the IC50 with recombinant human CD40L [4], with recombinant human CD40L [6] and with recombinant human CD40L [7] were 8.07 nM, 12.4 nM and 0.142 nM, respectively.
